Experimental data from patent US20090318342A1, “Compounds” (IMPERIAL INNOVATIONS LIMITED, priority 2005, published 2009).

Key:
[1] = test system: monocyte-derived macrophages (MDM); assay: TNFα release by monocyte-derived macrophages (ELISA); assay type: cell-based, human; settings: for EC50: 10 ng/ml LPS, read-out: EC50 for inhibition of LPS stimulated TNFα release by MDM; for Effect on basal TNFα release by MDM: no LPS
Method: FIG. 9. The effect of TIMP-3 mutants on TNFα release by monocyte-derived-macrophages (MDM). […] Data is normalised to % LPS stimulation.
To address the efficacy of TMP-3 mutants on MDM, MDM from a healthy subject were cultured in the laboratory and stimulated with LPS. The effect of TIMP-3 mutants on MMP-9 activity and TNFα was measured.
This method was adapted from Dransfield et al., [7] and performed under sterile conditions. Blood was collected into EDTA (2% W/v). Dextran solution (6% w/v) was added to the whole blood in volumes of 10 ml per 20 ml blood and the final volume adjusted to 50 ml in Dulbecco's PBS. The samples were allowed to sediment at room temperature for 45 min. After sedimentation, the upper leukocyte rich layer was centrifuged at 400×g for 10 min, 4° C. and the supernatant discarded. The pellets containing the cells were resuspended in Dulbecco's PBS and centrifuged for a second time as before.
The gradient consisted of three separate concentrations of Percoll™. A ‘100% v/v’ Percoll™ solution was prepared from 90% v/v Percoll™ containing 10% v/v 10×PBS. The gradient was then prepared as follows: 4 ml 81% v/v Percoll was added to a 15 ml Falcon tube. This was overlaid by 4 ml 70% v/v Percoll. The cell pellet was resuspended in 3 ml of 55% v/v Percoll™ and then overlaid onto the pre-prepared gradient. The cells were centrifuged at 750×g for 20 min at 4° C. The peripheral blood mononuclear cells (PBMCs) were harvested from the 55%/70% interface (top layer) and the polymorphonuclear (PMN) cells remained at the 70%/81% interface (bottom layer). PBMCs were washed twice by centrifugation in sterile PBS.
PBMCs were washed in serum-containing separation buffer (sterile PBS, 0.5% w/v bovine serum albumin (BSA), 2 mM EDTA. The cells were diluted 1:100 in Kimura stain and counted using a haemocytometer. The cell pellet was resuspended with the following ratio of reagents from the monocyte isolation kit. 60 μl separation buffer, 20 μl Fc receptor (FcR) blocking reagent and 20 μl Hapten Conjugated Antibody cocktail were added to 10^7 cells and incubated at 6-12° C. for 5 min. The cells were washed twice (5 min, 4° C., 250×g) in separation buffer in a volume 10-20 times higher than the labelling volume. The cell pellet was resuspended in: 60 μl separation buffer, 20 μl FcR blocking reagent, 20 μl MACS anti-hapten microbeads and 5 μl CD15 microbeads (to remove any contaminating neutrophils) per 10^7 cells and incubated at 6-12° C. for 15 min. The cells were washed (5 min, 4° C., 250×g) and resuspended in 500 μl separation buffer. The magnetic column was prepared by washing with 3 ml separation buffer. […]
TNFα was measured using a commercially available ELISA kit and MMP-9 was measured using a Fluorokine kit.

THP-1 cells = assay: Inhibition of TNF-α shedding from THP-1 cells (ELISA); assay type: cell-based, human; settings: 100 ng/ml PMA, 6 h, 50 to 500 nM
Method: FIG. 3. Effects of mutations in N-TIMP-3 on inhibition of cellular shedding of TNF-α. THP-1 cells (2.5×10^6/ml) growing in serum-free RPMI-1640 medium were stimulated with 100 ng/ml PMA for 20 min before adding various concentrations of N-TIMP-3 (wild-type and mutants). Cells were allowed to grow for another 6 hr and conditioned media were collected for the ELISA assays.
Inhibition of TNF-α shedding from THP-1 cells—All TIMP solutions were dialyzed against 20 mM Tris-HCl (pH 7.0), 150 mM NaCl and 20% glycerol before use. Human monocyte THP-1 cells cultured in RPMI-1640 medium supplemented with 5% fetal calf serum were harvested, extensively washed and reseeded into serum-free medium at 2.5×10^6 cells/ml. […] The amount of soluble TNF-α released into the medium was measured using sandwich enzyme-linked immunosorbent assay, as described by Engelberts et al. (30) with modifications. The released TNF-α was absorbed to microtiter plates coated with mouse monoclonal anti-human TNF-α antibody BD551220 (1:200 dilution), and the bound TNF-α was detected using biotinylated mouse monoclonal anti-human TNF-α: antibody BD554511 (1:500 dilution) and streptavidin conjugated with horse radish peroxidase, and 3,3′,5,5′-tetramethylbenzidine as peroxidase substrate (KPL, Guildford, UK). The plates were read at 450 nm with an ELX808 plate reader (BIO-TEK Instruments Inc). […]

Row | EC50 [1] | Molecule | Effect on basal TNFα release by MDM [1] | Inhibition of PMA-stimulated release of TNF-α (THP-1 cells)
1 | ~180 nM | (-2A)N-TIMP-3: N-TIMP-3 mutant with two alanine residues on the N-terminal side of Cysteine1 of the TIMP-3 sequence (protein) AACTCSPSHPQDAFCNSDIVIRAKVVGKKLVKEGPFGTLVYTIKQMKMYRGFTKMPHVQYIHTEASESLCGLKLEVNKYQYLLTGRVYDGKMYTGLCNFVERWDQLTLSQRKGLNYRYHLGCN | little effect | –
2 | – | -1A: N-TIMP-3 mutant with the addition of an N-terminal alanine extension (-1A) (protein) ACTCSPSHPQDAFCNSDIVIRAKVVGKKLVKEGPFGTLVYTIKQMKMYRGFTKMPHVQYIHTEASESLCGLKLEVNKYQYLLTGRVYDGKMYTGLCNFVERWDQLTLSQRKGLNYRYHLGCN | – | only slightly reduced inhibitory activity
3 | ~180 nM | N-TIMP-3: N-terminal inhibitory domain of TIMP-3 (residues 1 to 121), C-terminally His-tagged, wild-type (protein) CTCSPSHPQDAFCNSDIVIRAKVVGKKLVKEGPFGTLVYTIKQMKMYRGFTKMPHVQYIHTEASESLCGLKLEVNKYQYLLTGRVYDGKMYTGLCNFVERWDQLTLSQRKGLNYRYHLGCN | little effect | effectively inhibited
